# In PMC8882101:
# Columns and labels:
# [1] = biological target: Cry1Ia38 protoxin (Bacillus thuringiensis (strain IE-1)); test: SEC; Superdex-200 10/300 GL, carbonate buffer (50 mM Na2CO3, 100 mM NaCl) pH 10.5; oligomeric state from the molecular weight of the eluted peaks against standards
# [2] = biological target: Cry1Ia38 protoxin (Bacillus thuringiensis (strain IE-1)); test: SDS-PAGE of samples heated at 50 °C, Western blot; control without BBMV: Cry1Ia protein incubated in carbonate buffer pH 10.5 at 37 °C, sample heated at 50 °C for 3 min, 10% SDS-PAGE, polyclonal anti-Cry1Ia
# [3] = biological target: Cry1Ia38 protoxin (Bacillus thuringiensis (strain IE-1)); test: SDS-PAGE of samples heated at 50 °C, Western blot; 5 µg Cry1Ia protein incubated with 2 µg O. nubilalis BBMV in 50 µl carbonate buffer pH 10.5 at 37 °C (5-30 min); BBMV pellet heated at 50 °C for 3 min, 10% SDS-PAGE, polyclonal anti-Cry1Ia
# [4] = biological target: fully MJ activated Cry1Ia toxin (Bacillus thuringiensis (strain IE-1)); test: SEC; Superdex-200 10/300 GL, carbonate buffer (50 mM Na2CO3, 100 mM NaCl) pH 10.5; oligomeric state from the molecular weight of the eluted peaks against standards
# [5] = biological target: fully trypsin activated Cry1Ia toxin (Bacillus thuringiensis (strain IE-1)); test: as above
# [6] = biological target: partially processed Cry1Ia protoxin (~67 kDa intermediate fragment) (Bacillus thuringiensis (strain IE-1)); test: SDS-PAGE of samples heated at 50 °C, Western blot; 5 µg Cry1Ia protein incubated with 2 µg O. nubilalis BBMV in 50 µl carbonate buffer pH 10.5 at 37 °C (5-30 min); BBMV pellet heated at 50 °C for 3 min, 10% SDS-PAGE, polyclonal anti-Cry1Ia
substance,measurement,setting,value
Cry1Ia38 protoxin (natural protein),stoichiometry N,[1],2
same,stoichiometry N,[2],2
same,stoichiometry N,[3],2
fully MJ activated Cry1Ia toxin (domain or fragment),stoichiometry N,[4],2
fully trypsin activated Cry1Ia toxin (domain or fragment),stoichiometry N,[5],2
partially processed Cry1Ia protoxin (~67 kDa intermediate fragment) (domain or fragment),stoichiometry N,[6],2
